Experiment: soluble on expression in E. coli; label from the status in PepcDB or PDB records

Sequence | soluble on expression in E. coli
MGSDKIHHHHHHMQKYTSQKLDRLNWDDLRYFLEVARTQRASAAGKRLGVDHTTVARRVRELEAALGVILFDKSRADGFTLTSDGHRLLRHADAVETAVQSASEQFRGATQGLSGHVRIGSTEGFGCFFLSPQIARFTAAHRDVSIDILPVPHFVSLSKREADMAITLERPERGKYVFTRLCDYRLRLYGTRDYFLRHEPVRCIADLRHHAFIDYVADLAFSHELLYLNRTIPDVSSSLCSTSVIAQYFAALQGNALAILPCFMAAPNPMLVSILPDEVVVTRQFWLSSREDLRKLRRITVLWDYLRAATDANRPLLLGDSAELKYVQP | not soluble
MGSDKIHHHHHHMQPEIRKIVTYDEEVLIEGFRKADAPWRMFAIACVVRNPWAGRFVEDLKPEIMAYGPVLGELMTERMITLAGSGDAIEAYGKAAIVGVDGEVEHASGLIHTLRFGNFFREAVGANSYLAFTNTRGPANAPIMVPLMDKNDAGRRSHYLTIQFAIPDAPRADEIVVLLGAATSGRPHHRIGDRYQDLKDLGHDLDNPAAV | not soluble
MGSDKIHHHHHHMQPPLTDKQFKHTIDYDSRLLPYKYYHTCVMDGIPDILFHWHNEFEINYVYGGTARYHIDYDYFNSQAGDIILIRPNAAHSIHPIEQRGHETDTLLFHLDMLGASQLDHTSMLYLQPLQTDVFKCILRIQPQDPGYAEIRQCLLTIFELVRHQPPYFELPLKSRLFDFFYLLYRYRYIVRKNTDDMYRKNEKLRLLIEHIQQHYAENLTIEQLAEQMGYTKTHFMTIFKQQTGTSCMEFIIQVRLRAATELLTNTLKPVLEIATEVGFNNLSNFNRQFKQYYHTTPSSYRKQLRKNRTYTNFDK | not soluble
MGSDKIHHHHHHMQPSATDSTISAGTQPHIVYSERASAPGPLLVFIPGTGGKTPKTAETEQAFIGTALAHGYRVIILSYIDTPAIAQVCTKRVLANDPACAEQVRQKRAFGDDTTARIDDAPQDAIVHRLNALIRYLAAHNAGDHWEQYLAGERLNWRAIVLSGQSQGGGMAAYIAKRIAIRGVIDFSGGWDMRSDSDIASWYSAPSATPPERWYGTYHADERFASAIAASYRAMNIPVSHQFSLSEPVRHPEGKNPGHGEGASNPVYRGIWETMLTGLE | not soluble
MGSDKIHHHHHHMQQAQLPLEAILYQYDLYPEAVEDHGENVKKLVTKHGLFALKKTQMTRSQADWFVYCMRKLDRLGYRKVVPLVPTKFGEYTLTDRDTSFYVMPWIESIPYNARESQEEKLADQLGVIHRLTVKTQPFSKEQLEASYNELRDRWDSRWLTMNRFADQAERKTYMSPYELTLLTHFSFLEHMAHTAKESLEAWYETCLEKEKYRSVLCHGRLSRAHAFFNERHEPLLFNFERAALDTPARDLASFFRHSFPHALWSEEEGHRWLYRYEQHLPLLEEEKRLLHAYLSFPDPVIYGIEAYQQQSGPPSEVKHVKRLEKRLLNLRRVERFSKSLLPTPAINESGLS | not soluble
MGSDKIHHHHHHMQQLQAAVALHKQGELDKAEAIYQQVLAVDVNNFYALNFCGSIKREKKRFDEGIDFLSRAISLQPDNPDAIYNLGNVFKDSERWDEAISCYEKTLGLRAESPEALNNLGICLKEVERFEYSEIVLRRVVSMQPGLAGAWLNLGNTFKEQEKYSEAKASYRNAIDLKPDFEAAYFALGLVLKEEGKVEEAIASYRKAIELKPDFADVYFALGLVLKEAGEFEAARQIVSALSTVNAMEDSTLLSFSLCDLVFDWYHRRVLNLLEDVEMTALSGASAPFSAYETVRKIQPQLFPPLFLKGEGDRANEKHLYRNGYLVEDEILPEDLCAEFVNGFEGANAMSAALIRAVSEKGVLGSVLGKIFKHTDFPHLVWNCIYFAKGPDDQAISDAWHYDNHYNVWTPKLMIYLNSQREEGGATEFVDTSLSRRLSEETDYMGFIWQRESYADRVKGSVKDLGLDPATLDPDHYTFSPDHAGSGVWFCPSRVLHRGVSPKKGVRHVLSFSLTPLPHDCGWSIDQCVDKSIEILQDKINKGMQKSDVNPYWIPAEAGYA | not soluble
MGSDKIHHHHHHMQQNDKKLFVLDTNVLLHEPLAIYSFKEHDVIIPMTVLEELDSIKDRKRDVSRDARVAIRALEDILGGPTTPEQILKGVALPTREEHSQVSGHLSIFPDHQVEFIIGSLPGDNNDNRIINTALHLQKIHFPRTVVLVTKDINMRLKAKGAGIERVEDYRSDQLIDDVRFLAKGFYQFSGDFWQNVDKVSTERRGLHTVHQVPLEHLGNENFYLNQYLIDDSSDFCGRVVSKTDKHLEMIDRGRDRLLHHEAWGINPKNIYQGMALDALLDPDIELIILTGPAGCGKTLLAMAAALELVVERKLYDKIIVTRNTPEIAESIGFLPGSEEEKMTPWLAAITDTLEVLHKNDVNPAGSVNYIMEKANIQFKSINFMRGRSIQNSVVILDECQNLTASQIKTMITRMGEGTKLICSGNLAQIDSTYLTAVTSGLTYMVERFKDFEGSANIYLNGVVRSRLAEFAEEHL | not soluble
MGSDKIHHHHHHMQRDDDSFMLVPSKGEDYMAGWHLDTKMAQDIVARTMRIIDTNINVMDARGRIIGSGDRERIGELHEGALLVLSQGRVVDIDDAVARHLHGVRQGINLPLRLEGEIVGVIGLTGEPESLRKYGELVCMTAEMMLEQSRLMHLLAQDSRLREELVMNLIQAEEHTPALNEWAQRLGIDLNQPRVVAMIEVDSGQLGVDSAMAELQQLQNALTTPDRNNLVAIVSLTEMVVLKPALNSFGRWDADDHVRRVEQLIARMKENGQLRFRVALGNFFTGPGSIARSYRTARTTMMVGKQRMPESRSYFYQDLMLPVLLDSLRGGWQANELARPLARLKAMDNNGLLRRTLQAWFRHNVQPLATSKALFIHRNTLEYRLNRISELTGLDLGSFDDRLLLYIALQLDEQR | not soluble
MGSDKIHHHHHHMQRIAMISEHASPLASVGSVDSGGQNVYVAHLARQLGKSGYLVDVFTRRDKALLPDVVAFAPNVRVVHVPAGPAVFVPKEQLLSFMPAFGDSMVDFMRRDAIGYDVLHANFFMSGVAAMRAREVLDIPLVMTFHALGKVRRLHQGSADGFPDNRFEIEDELVRHADRVVAECPQDLDDLATLYGGDPERIDIVPCGFDEEEFAPLDRAEARRALDWDADVFTVLQLGRLVPRKGIDNVIRAIGHLRRDFRIPARLYVVGGNAEQPSVEATPEIGRLQGVADEAGVSDCVTFVGRRRRSQLCHFYSASDVFVTTPWYEPFGITPVEAMACGVPVVGADVGGIRSTVVDGETGYLVPPHAPEALADRLARLAGDRALARRMGAAGLQRAHANYTWMSVARTMEQVYARVMRAERPARRVAA | not soluble
MGSDKIHHHHHHMRAIAIVLARSSSKRIKNKNIIDFFNKPMLAYPIEVALNSKLFEKVFISSDSMEYVNLAKNYGASFLNLRPKILADDRATTLEVMAYHMEELELKDEDIACCLYGASALLQEKHLKNAFETLNKNQNTDYVFTCSPFSASPYRSFSLENGVQMAFKEHSNTRTQDLKTLYHDAGLLYMGKAQAFKEMRPIFSQNSIALELSPLEVQDIAHFRRFRISQAQIQPFEKRMPVKILCDCFLTSGLGHVRRCEKILSFIEKLGVEASLYLHKQNNISAFLEGVGGNDFLITDSYCLNSKDFYLLKEKAKSLMVIEDTEHAKGFYPKNTKILNFTLNALKHYHHLSKDYQYYLGVGFYPVDARFIYDRPINTENKEVLITLGGSEQKTLKEIVKILENKNVNLHIISPYTPKNPPKNTHYYSPLNPLEFSSLMKSCACAISAAGQTLYELALSQTPSLILPIASNQIIQSKEFESLGIFKQTSLKTLAKDFENLQIQKNQAWAKNLVFGDKLEGALREFLEI | not soluble
MGSDKIHHHHHHMRAIFFNGDLQYTTDYPDPVRQPGEALIRPHLVGICNTDLEITRGYMNFRGVLGHEFVGTVVASDDPSWQGKRVVGEINAACRRCPTCLRGDVSHCPQRTTLGIYRRDGAMADLFTLPEACLHEVPASVSDEAAVFTEPLAAALEIVEQSHIRPTERVAVVGDGKLGAMIVQVLRLTGCELTLIGRHPERWDVYRQQGITCVRSTDLPGTLFDVVVDCTGNPSGLNIARQIIRPRGRLILKSTFAAETQLNLSMVVVDEIQLIGSRCGPFAPALRLLERGLIATTPLISARYPLAEGLQAFAAAPGQLKVLLSV | not soluble
MGSDKIHHHHHHMREKIDALTQNLNRTIVGKTEAIRLVLVALLGGGHALLEDVPGVGKTLLAKSLARSLDGTFQRLQCTPDLLPTDITGTNIWNPKSGEFSFMPGPVFANVVLADEINRATPRTQSALLEVMEEQQVTVDGVSRTVPHPFFVIATQNPVEYQGTFPLPEAQMDRFMLSLSLGYPGVDEELEMLQNLQHGIKVGDLQPCLTLAEVAELREICSQVKVETVLQQYILELVRSTRQDEEITLGVSPRGTVALHKATQALAFLLGRDYAIPDDVKFLAPHVLCHRLIARGGRSARSIVDRLLRSLPIP | not soluble
MGSDKIHHHHHHMRGMMLGMLAETHIHSGAGRSEGFVDLPVAREAVTSYPVIAGSSLKGALRDAARERGMDESIFGDQDRAGDVLVSDARLLLLPVRSLTGSYRWVTCPHILERLSRDMRLCGISDGFEGASVERGKACCTDDLNQIFLEEREFQRSNGIDGALIDALKKMVPHKQTASRLERQLVIISDDDFGWFASYGLPVIARNKLDDNKKSKNLWYEEALAPDTLMYAMVFERKDGALGKVQSMFETKPYLQLGGNETVGMGWFAVKILEQGEGR | not soluble
MGSDKIHHHHHHMRGSAVARDLTDDKAMVHGALSMLARGGAVDQAYAPDAVAEIAHPYGTCTGADITRFYGDLHRALPDANWRPEIFFAGHNHPDERMEGPRVAAQVGSFGHWQGTFTQPLLGIEPTGGVVHLRMCEVHHLNAAGQIAQSWILPDFLDLMDQAGQFPLPPMNGARGLWPGPRGGNGVRMGPPDVAGGNASMAQVLDMHNALNTHVGADVSGLTMAHWDPNFMYYAAAGIGICRGVEGFRRNHQIPFREAVPDRYSKGHFVRIADGRFALTGGRLYATHTGTYLGIPATGRQVHIDVMDFYHFHDQGLICQNWLPFDILKTAHQMGVDLLPALPS | not soluble
MGSDKIHHHHHHMRIAILSQGPELYSTKRLVEAATLRGHEVKVINPLECYMNINMRQSSIHIGGEELPPFDAVIPRIGASITFYGSAVLRQFEMMGVYALNDSVGISRSRDKLRSMQLMSRRGIGLPITGFANKPSDIPDLIDMVGGAPLVIKLLEGTQGIGVVLAETRKAAESVIEAFMGLKANIMVQEYIKEANGADIRCFVLGDKVVAAMKRQAMPGEFRSNLHRGGTASLVKLTPEERSVAIRAAKTMGLNVAGVDLLRSNHGPLVMEVNSSPGLEGIEGATAKDVAGAIIEFVEKNALKTKKPTQA | not soluble
MGSDKIHHHHHHMRIHVLCDDSSQNGFESEHGFSVLVDSVLFDTGKSDVFLKNARKLGIDLPKDVLISHGHYDHAGGLLYLSGKRVWLRKEALDQKYSGERYAGADWNEVLYYNTGKFVIERITEIGKNMFLLGPANLRGKVPTGDFFVERNGERRKDLFEDEQTLVVRTKEGLVVITGCSHRGIDNILLDIAETFNERIKMVVGGFHLLKSSDDEIEKIVKAFNELGVETVVPCHCTGERAVDIFKREFLGKIMDCYAGLKLEVSD | soluble
MGSDKIHHHHHHMRIILYLGKGGVGKTTVSASTATAIARSGKRVLIMSTDVAHSLADAFGVELSSTPVEVEKNLFAMEVNILAEIRENWTELYSYFSSILMHDGTNEIVAEELAIVPGMEEMISLRYIWKAAKSGKYDAVVVDAAPTGETMRLLGMPESYGWYSEKIGGWHSKAIGFAAPLLSRFMPKKNIFKLMPEVNEHMKELHGMLQDKSITTFRVVLNPENMVIKEALRVQTYLNLFGYKLDAAVVNKVLPSNSSDPYLQALIDQQAKYLRVIDNCFYPVPIFRAMQSSKEVISTDRLYDLSQELFSGRNPMEVLYSNDKTQTLEKINGKYVLSLYLPNVEVDKLAVNIKGDELLVDINNFRKSIVLPNVLVGRKTEGADFEQGTLNITFAN | not soluble

From the DeepSol protein solubility set
